Measured values: the supplement of paper PMC9112550, “Optimization of the antimicrobial peptide Bac7 by deep mutational scanning” (BMC Biology, 2022)

Test system: Escherichia coli TOP10
Test: shrunken log2 fold change of peptide-encoding DNA abundance (4.5 h post-induction vs induction); higher = less antimicrobial activity (less host growth inhibition)
Conditions: time post-induction: 4.5 h; library: site-saturation at positions 5, 18, 19, 20
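Further: peptides expressed intracellularly from a pBAD plasmid library in pooled LB shake-flask culture, induced with 0.3% L-arabinose, DNA abundance read by NGS, three biological replicates, DESeq2 with apeglm shrinkage.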

## RRIRTRPPRLPRPRPRPCIEPRP
  shrunken log2 fold change: -0.183

## RRIRTRPPRLPRPRPRPCIWPRP
  shrunken log2 fold change: -0.0258

## RRIRTRPPRLPRPRPRPCMDPRP
  shrunken log2 fold change: -0.459

## RRIRTRPPRLPRPRPRPCNDPRP
  shrunken log2 fold change: -0.145

## RRIRTRPPRLPRPRPRPCPAPRP
  shrunken log2 fold change: 0.115

## RRIRTRPPRLPRPRPRPCRSPRP
  shrunken log2 fold change: -0.0198

## RRIRTRPPRLPRPRPRPCRVPRP
  shrunken log2 fold change: -0.346

## RRIRTRPPRLPRPRPRPCRYPRP
  shrunken log2 fold change: 0.0413

## RRIRTRPPRLPRPRPRPCSKPRP
  shrunken log2 fold change: -0.074

## RRIRTRPPRLPRPRPRPCTHPRP
  shrunken log2 fold change: -0.0873

## RRIRTRPPRLPRPRPRPCTIPRP
  shrunken log2 fold change: -0.456

## RRIRTRPPRLPRPRPRPCTSPRP
  shrunken log2 fold change: -0.137

## RRIRTRPPRLPRPRPRPCYNPRP
  shrunken log2 fold change: -0.645

## RRIRTRPPRLPRPRPRPCYTPRP
  shrunken log2 fold change: -0.0244

## RRIRTRPPRLPRPRPRPDAIPRP
  shrunken log2 fold change: -0.141

## RRIRTRPPRLPRPRPRPDFRPRP
  shrunken log2 fold change: 0.0337

## RRIRTRPPRLPRPRPRPDGCPRP
  shrunken log2 fold change: 0.127

## RRIRTRPPRLPRPRPRPDGIPRP
  shrunken log2 fold change: -0.00822

## RRIRTRPPRLPRPRPRPDGLPRP
  shrunken log2 fold change: 0.0665

## RRIRTRPPRLPRPRPRPDIGPRP
  shrunken log2 fold change: -0.187

## RRIRTRPPRLPRPRPRPDKHPRP
  shrunken log2 fold change: -0.551

## RRIRTRPPRLPRPRPRPDKLPRP
  shrunken log2 fold change: 0.0136

## RRIRTRPPRLPRPRPRPDMRPRP
  shrunken log2 fold change: -0.025

## RRIRTRPPRLPRPRPRPDMVPRP
  shrunken log2 fold change: -0.00822

## RRIRTRPPRLPRPRPRPDNRPRP
  shrunken log2 fold change: -0.0132

## RRIRTRPPRLPRPRPRPDPGPRP
  shrunken log2 fold change: 0.0486

## RRIRTRPPRLPRPRPRPDPSPRP
  shrunken log2 fold change: -0.0208

## RRIRTRPPRLPRPRPRPDQDPRP
  shrunken log2 fold change: -0.0328

## RRIRTRPPRLPRPRPRPDQVPRP
  shrunken log2 fold change: -0.272

## RRIRTRPPRLPRPRPRPDSKPRP
  shrunken log2 fold change: 0.0427

## RRIRTRPPRLPRPRPRPDSMPRP
  shrunken log2 fold change: 0.0768

## RRIRTRPPRLPRPRPRPDVHPRP
  shrunken log2 fold change: 1.16

## RRIRTRPPRLPRPRPRPDVIPRP
  shrunken log2 fold change: -0.0157

## RRIRTRPPRLPRPRPRPDVRPRP
  shrunken log2 fold change: -0.31

## RRIRTRPPRLPRPRPRPDWCPRP
  shrunken log2 fold change: -0.0271

## RRIRTRPPRLPRPRPRPDYCPRP
  shrunken log2 fold change: -0.125

## RRIRTRPPRLPRPRPRPDYHPRP
  shrunken log2 fold change: -0.699

## RRIRTRPPRLPRPRPRPDYMPRP
  shrunken log2 fold change: -0.687

## RRIRTRPPRLPRPRPRPDYQPRP
  shrunken log2 fold change: -0.0545

## RRIRTRPPRLPRPRPRPEACPRP
  shrunken log2 fold change: -0.1

## RRIRTRPPRLPRPRPRPEAWPRP
  shrunken log2 fold change: 0.178

## RRIRTRPPRLPRPRPRPECCPRP
  shrunken log2 fold change: 0.348

## RRIRTRPPRLPRPRPRPEDVPRP
  shrunken log2 fold change: -0.0588

## RRIRTRPPRLPRPRPRPEFKPRP
  shrunken log2 fold change: 0.0563

## RRIRTRPPRLPRPRPRPEGCPRP
  shrunken log2 fold change: 0.214

## RRIRTRPPRLPRPRPRPEGLPRP
  shrunken log2 fold change: 0.0624

## RRIRTRPPRLPRPRPRPEHQPRP
  shrunken log2 fold change: 0.127

## RRIRTRPPRLPRPRPRPEIQPRP
  shrunken log2 fold change: -0.00275

## RRIRTRPPRLPRPRPRPEITPRP
  shrunken log2 fold change: -0.0572

## RRIRTRPPRLPRPRPRPEKEPRP
  shrunken log2 fold change: 0.0172

## RRIRTRPPRLPRPRPRPEKYPRP
  shrunken log2 fold change: -0.156

## RRIRTRPPRLPRPRPRPELDPRP
  shrunken log2 fold change: 0.641

## RRIRTRPPRLPRPRPRPEMAPRP
  shrunken log2 fold change: 0.484

## RRIRTRPPRLPRPRPRPEMPPRP
  shrunken log2 fold change: -0.0682

## RRIRTRPPRLPRPRPRPENGPRP
  shrunken log2 fold change: 0.0885

## RRIRTRPPRLPRPRPRPEPFPRP
  shrunken log2 fold change: 0.0259

## RRIRTRPPRLPRPRPRPEQCPRP
  shrunken log2 fold change: -0.01

## RRIRTRPPRLPRPRPRPERPPRP
  shrunken log2 fold change: 0.267

## RRIRTRPPRLPRPRPRPESFPRP
  shrunken log2 fold change: -0.47

## RRIRTRPPRLPRPRPRPESHPRP
  shrunken log2 fold change: -0.164

## RRIRTRPPRLPRPRPRPESTPRP
  shrunken log2 fold change: -0.0383

## RRIRTRPPRLPRPRPRPETFPRP
  shrunken log2 fold change: -0.4

## RRIRTRPPRLPRPRPRPETMPRP
  shrunken log2 fold change: 0.338

## RRIRTRPPRLPRPRPRPEYNPRP
  shrunken log2 fold change: -0.395

## RRIRTRPPRLPRPRPRPFACPRP
  shrunken log2 fold change: -0.198

## RRIRTRPPRLPRPRPRPFDCPRP
  shrunken log2 fold change: -0.748

## RRIRTRPPRLPRPRPRPFDMPRP
  shrunken log2 fold change: -0.00208

## RRIRTRPPRLPRPRPRPFDSPRP
  shrunken log2 fold change: -0.258

## RRIRTRPPRLPRPRPRPFFIPRP
  shrunken log2 fold change: -0.518

## RRIRTRPPRLPRPRPRPFGDPRP
  shrunken log2 fold change: 0.0755

## RRIRTRPPRLPRPRPRPFHCPRP
  shrunken log2 fold change: -0.179

## RRIRTRPPRLPRPRPRPFHFPRP
  shrunken log2 fold change: -0.303

## RRIRTRPPRLPRPRPRPFHLPRP
  shrunken log2 fold change: -0.0758

## RRIRTRPPRLPRPRPRPFILPRP
  shrunken log2 fold change: -0.276

## RRIRTRPPRLPRPRPRPFIVPRP
  shrunken log2 fold change: -0.265

## RRIRTRPPRLPRPRPRPFMMPRP
  shrunken log2 fold change: -0.203

## RRIRTRPPRLPRPRPRPFNIPRP
  shrunken log2 fold change: -0.333

## RRIRTRPPRLPRPRPRPFNKPRP
  shrunken log2 fold change: 0.0555

## RRIRTRPPRLPRPRPRPFNTPRP
  shrunken log2 fold change: -0.0686

## RRIRTRPPRLPRPRPRPFPAPRP
  shrunken log2 fold change: 0.299

## RRIRTRPPRLPRPRPRPFPEPRP
  shrunken log2 fold change: -0.41

## RRIRTRPPRLPRPRPRPFPPPRP
  shrunken log2 fold change: -0.0137

## RRIRTRPPRLPRPRPRPFQLPRP
  shrunken log2 fold change: -0.138

## RRIRTRPPRLPRPRPRPFQNPRP
  shrunken log2 fold change: 0.0326

## RRIRTRPPRLPRPRPRPFREPRP
  shrunken log2 fold change: -0.0376

## RRIRTRPPRLPRPRPRPFRYPRP
  shrunken log2 fold change: -0.0915

## RRIRTRPPRLPRPRPRPFSSPRP
  shrunken log2 fold change: -0.399

## RRIRTRPPRLPRPRPRPFTGPRP
  shrunken log2 fold change: -0.12

## RRIRTRPPRLPRPRPRPFWAPRP
  shrunken log2 fold change: 0.346

## RRIRTRPPRLPRPRPRPFWEPRP
  shrunken log2 fold change: 1.78

## RRIRTRPPRLPRPRPRPFWHPRP
  shrunken log2 fold change: 0.23

## RRIRTRPPRLPRPRPRPFYTPRP
  shrunken log2 fold change: -0.373

## RRIRTRPPRLPRPRPRPGAPPRP
  shrunken log2 fold change: 0.479

## RRIRTRPPRLPRPRPRPGCYPRP
  shrunken log2 fold change: -0.115

## RRIRTRPPRLPRPRPRPGFMPRP
  shrunken log2 fold change: -0.0526

## RRIRTRPPRLPRPRPRPGFVPRP
  shrunken log2 fold change: -0.0603

## RRIRTRPPRLPRPRPRPGHRPRP
  shrunken log2 fold change: -0.216

## RRIRTRPPRLPRPRPRPGIFPRP
  shrunken log2 fold change: -0.146

## RRIRTRPPRLPRPRPRPGKAPRP
  shrunken log2 fold change: -0.0369

## RRIRTRPPRLPRPRPRPGKCPRP
  shrunken log2 fold change: 0.0114

## RRIRTRPPRLPRPRPRPGLVPRP
  shrunken log2 fold change: 0.0962

## RRIRTRPPRLPRPRPRPGMWPRP
  shrunken log2 fold change: 0.158

## RRIRTRPPRLPRPRPRPGPGPRP
  shrunken log2 fold change: 0.484

## RRIRTRPPRLPRPRPRPGPNPRP
  shrunken log2 fold change: -0.0314

## RRIRTRPPRLPRPRPRPGRNPRP
  shrunken log2 fold change: -0.0275

## RRIRTRPPRLPRPRPRPGRVPRP
  shrunken log2 fold change: 0.744

## RRIRTRPPRLPRPRPRPGVGPRP
  shrunken log2 fold change: 0.546

## RRIRTRPPRLPRPRPRPGVKPRP
  shrunken log2 fold change: 0.14

## RRIRTRPPRLPRPRPRPGYYPRP
  shrunken log2 fold change: -0.442

## RRIRTRPPRLPRPRPRPHARPRP
  shrunken log2 fold change: 0.158

## RRIRTRPPRLPRPRPRPHCWPRP
  shrunken log2 fold change: -0.0903

## RRIRTRPPRLPRPRPRPHDCPRP
  shrunken log2 fold change: -0.00088

## RRIRTRPPRLPRPRPRPHEIPRP
  shrunken log2 fold change: 0.00283

## RRIRTRPPRLPRPRPRPHEQPRP
  shrunken log2 fold change: 0.177

## RRIRTRPPRLPRPRPRPHFWPRP
  shrunken log2 fold change: 0.0783

## RRIRTRPPRLPRPRPRPHGLPRP
  shrunken log2 fold change: -0.034

## RRIRTRPPRLPRPRPRPHLGPRP
  shrunken log2 fold change: 0.0458

## RRIRTRPPRLPRPRPRPHLSPRP
  shrunken log2 fold change: -0.0793

## RRIRTRPPRLPRPRPRPHNTPRP
  shrunken log2 fold change: -0.346

## RRIRTRPPRLPRPRPRPHPAPRP
  shrunken log2 fold change: 0.201

## RRIRTRPPRLPRPRPRPHPGPRP
  shrunken log2 fold change: 0.106

## RRIRTRPPRLPRPRPRPHQAPRP
  shrunken log2 fold change: -0.00677

## RRIRTRPPRLPRPRPRPHRAPRP
  shrunken log2 fold change: 0.0171

## RRIRTRPPRLPRPRPRPHRFPRP
  shrunken log2 fold change: -0.0213

## RRIRTRPPRLPRPRPRPHVMPRP
  shrunken log2 fold change: -0.0914

## RRIRTRPPRLPRPRPRPHVPPRP
  shrunken log2 fold change: -0.374

## RRIRTRPPRLPRPRPRPHVRPRP
  shrunken log2 fold change: -0.00804

## RRIRTRPPRLPRPRPRPHYEPRP
  shrunken log2 fold change: -0.174

## RRIRTRPPRLPRPRPRPHYNPRP
  shrunken log2 fold change: -0.75

## RRIRTRPPRLPRPRPRPHYWPRP
  shrunken log2 fold change: -0.25

## RRIRTRPPRLPRPRPRPIAFPRP
  shrunken log2 fold change: -0.0138

## RRIRTRPPRLPRPRPRPIANPRP
  shrunken log2 fold change: 0.207

## RRIRTRPPRLPRPRPRPIAQPRP
  shrunken log2 fold change: -0.0464

## RRIRTRPPRLPRPRPRPICPPRP
  shrunken log2 fold change: -0.0534

## RRIRTRPPRLPRPRPRPIFFPRP
  shrunken log2 fold change: 0.0107

## RRIRTRPPRLPRPRPRPIHKPRP
  shrunken log2 fold change: -0.281

## RRIRTRPPRLPRPRPRPIHYPRP
  shrunken log2 fold change: -0.356

## RRIRTRPPRLPRPRPRPIIWPRP
  shrunken log2 fold change: -0.0836

## RRIRTRPPRLPRPRPRPIKPPRP
  shrunken log2 fold change: -0.0369

## RRIRTRPPRLPRPRPRPIKRPRP
  shrunken log2 fold change: -0.0164

## RRIRTRPPRLPRPRPRPILMPRP
  shrunken log2 fold change: -0.306

## RRIRTRPPRLPRPRPRPILWPRP
  shrunken log2 fold change: 0.0348

## RRIRTRPPRLPRPRPRPIMWPRP
  shrunken log2 fold change: 0.0465

## RRIRTRPPRLPRPRPRPINWPRP
  shrunken log2 fold change: -0.0841

## RRIRTRPPRLPRPRPRPINYPRP
  shrunken log2 fold change: -0.502

## RRIRTRPPRLPRPRPRPIPGPRP
  shrunken log2 fold change: -0.36

## RRIRTRPPRLPRPRPRPIPYPRP
  shrunken log2 fold change: -0.0288

## RRIRTRPPRLPRPRPRPIQEPRP
  shrunken log2 fold change: 0.0124

## RRIRTRPPRLPRPRPRPIQHPRP
  shrunken log2 fold change: -0.403

## RRIRTRPPRLPRPRPRPISLPRP
  shrunken log2 fold change: -0.0795
